Results reported in patent US5889152A, “Porphenins--antibiotic peptides” (Regents of the University of California, priority 1995, dated 1999).
Where no end group is shown, it is not given here.

Columns and labels:
C. albicans, strain 820 = test: Radial diffusion assay in agarose gels, C. albicans; format: cell-based, Candida albicans; details: clear zone units
Description: (§1) Aliquots (66 μl) of each fraction were dried by vacuum centrifugation, and resuspended in approximately 6.6 μl of 0.01% acetic acid. […] samples of this concentrate were tested for antimicrobial activity against E. coli ML-35, L. monocytogenes, Strain EGD and C. albicans, strain 820 by radial diffusion and gel overlay techniques (Lehrer, R. I. et al. J Immunol Meth (1991) 137:167-173). Active fractions were further examined by acid-urea PAGE and SDS-PAGE. Prophenins emerged from the P10 column in fractions 38-43 (39.6 ml total volume), which contained a total of 18 mg protein by BCA analysis.
(§2) The radial diffusion assay in agarose gels as described above was also used to test the activity of the purified prophenins. Samples of 5 μL each were added to 3 mm wells in thin gels composed of 10 mM sodium phosphate, 30 mg/ml trypticase soy broth powder in 1% agarose and containing approximately 4×10^5 CFU/ml of mid-log phase organisms. After allowing 3 hours for the samples to diffuse into the underlayer gel, a nutrient-rich overlay gel was poured and the plates were incubated for 24 hours at 37° C. to allow surviving organisms to form microcolonies. The diameters of the clear zones were measured and expressed in "units" (10 units=1 mm) as described previously.

E. coli ML-35 = test: Radial diffusion assay in agarose gels, E. coli; format: cell-based; details: for inhibitory activity (FIG. 4a): E. coli ML-35, clear zone units
Description: as §1, §2

[1] = test system: lipid polysaccharide (LPS) of the Gram-negative bacterium E. coli strain 0.55B5; test: Limulus amebocyte lysate (LAL) test for endotoxin binding; format: biochemical; details: for concentration giving complete inhibition of gelation / concentration giving complete inhibition of gelation, molar: LAL test; for LAL gel formation: peptide 0.63 μg/ml (.625 in Table 4), LPS 0.05 endotoxin unit/ml
Description: The prophenins of the invention were tested for their ability to bind the lipid polysaccharide (LPS) of the Gram-negative bacterium E. coli strain 0.55B5. The assay was the Limulus amebocyte lysate (LAL) test for endotoxins conducted in the presence and absence of the test compounds. The test was conducted using the procedure described in Sigma Technical Bulletin No. 210 as revised in December 1992 and published by Sigma Chemical Company, St. Louis, Mo.
The LAL test is based on the ability of LPS to effect gelation in the commercial reagent E-TOXATE™ which is prepared from the lysate of circulating amebocytes of the Horseshoe Crab Limulus polyphemus. As described in the technical bulletin, when exposed to minute quantities of LPS, the lysate increases in opacity as well as viscosity and may gel or clot depending on the concentration of endotoxin. The technical bulletin goes on to speculate that the mechanism appears analogous to the clotting of mammalian blood and involves the steps of activation of a trypsin-like preclotting enzymes by the LPS in the presence of calcium ion, followed by enzymic modifications of a "coagulogen" by proteolysis to produce a clottable protein. These steps are believed tied to the biologically active or "pyrogenic" portion of the molecule. It has been shown previously that detoxified LPS (or endotoxin) gives a negative LAL test.
Polymyxin B is a cyclic 1.2 kD acylated […] obtained from Bacillus polymyxa. Polymyxin B was used as a positive control since it is known to inhibit LPS-induced Limulus hemocyte lysate clotting.
In the assay, the amounts of prophenin-1 and polymyxin B (78% free polymyxin, Sigma) were preincubated in a final volume of 0.2 ml and the test mixtures contained LPS at a final concentration of 0.05 endotoxin unit/ml and E-TOXATE™ at the same concentration. The test compounds were incubated together with the LPS for 15 minutes before the E-TOXATE™ was added to a final volume (after E-TOXATE™ addition) of 0.2 ml. The tubes were then incubated for 60 minutes at 37° C. and examined for the formation of a gel.
The ability of fragments of prophenin-1 to bind LPS was also assayed. Prophenin-1 was digested with TLCK treated trypsin as described above, thus cleaving the protein C-terminal to the initial 4 arginines. The fragments were purified by RP-HPLC, and their identities were verified by ESI-MS and amino acid composition analysis. The three fragments were those obtained as described in Example 1 and are as follows: […]

[2] = test system: L. monocytogenes, Strain EGD; test: Radial diffusion assay in agarose gels, L. monocytogenes; format: cell-based, Listeria monocytogenes
Description: as §1, §2

Molecule	inhibitory activity (FIG. 4c) (C. albicans, strain 820)	inhibitory activity (FIG. 4a) (E. coli ML-35)	concentration giving complete inhibition of gelation [1] [µg/mL]	concentration giving complete inhibition of gelation, molar [1]	LAL gel formation [1]	specificity for Gram-negative bacteria (E. coli ML-35; compared over E. coli, L. monocytogenes, C. albicans)	concentrations at which some activity was shown ([2]; FIG. 4b)	inhibitory activity (FIG. 4b) ([2]; clear zone units)	LPS binding / inactivation in words [1]	potency in binding LPS relative to polymyxin B sulfate, molar basis ([1]; 4.2/0.072)
HNP-1: human defensin (HNP-1), control	substantially noninhibitory	–	–	–	–	–	–	–	–	–
PG-3: protegrin-3 (PG3), control (RGGGLCYCRRRFCVCVGR; ends and bridges not checked; cysteine pairing not given here; UniProt P32196 131-148, looked up) [reference compound]	successful antifungals	more inhibitory than HNP-1	–	–	–	–	–	–	–	–
Polymyxin B [reference compound]	–	–	5	≈ 4.2 μM	++	–	–	–	–	–
Prophenin-1: 79-residue proline-rich antimicrobial peptide purified from porcine leukocytes, mass 8,683, SEQ ID NO:1 (protein) AFPPPNVPGPRFPPPNFPGPRFPPPNFPGPRFPPPNFPGPRFPPPNFPGPPFPPPIFPGPWFPPPPPFRPPPFGPPRFP	substantially noninhibitory	comparable in inhibitory activity to PG3 and NP1	0.625	≈ 72 nM	0	highly specific for Gram-negative bacteria	above 100 μg/ml	substantially less inhibitory	more effective than the additive value of the subunits	approximately 60 fold
